The assay deals with T1, His6-ElxO (Staphylococcus epidermidis 15X154) (UniProt I6ZQW6).
T1 sequence: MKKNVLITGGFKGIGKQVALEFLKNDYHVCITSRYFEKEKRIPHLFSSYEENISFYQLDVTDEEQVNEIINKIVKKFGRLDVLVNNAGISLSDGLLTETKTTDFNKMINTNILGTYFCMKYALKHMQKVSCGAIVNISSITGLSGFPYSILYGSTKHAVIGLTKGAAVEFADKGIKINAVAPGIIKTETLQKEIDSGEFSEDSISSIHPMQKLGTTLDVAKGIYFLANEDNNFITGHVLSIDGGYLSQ

Ends that are not written are not given here. * marks the point of attachment. Pyruvoyl = CC(=O)C(=O)* Bounds are passed on as bounds.

For the molecule Pyr-AAI (peptide), the kcat/Km of reduction by His6-ElxO with NADPH (absorbance at 340 nm) is 0.06 M⁻¹ s⁻¹.

Turning to Pyr-A (peptide), the kcat/Km of reduction by His6-ElxO with NADPH (absorbance at 340 nm) was less than 0.03 M⁻¹ s⁻¹.

With Pyr-AA (peptide), the kcat/Km of reduction by His6-ElxO with NADPH (absorbance at 340 nm) was less than 0.03 M⁻¹ s⁻¹.

Pyr-AAIVKBBIKAAKK (peptide): the kcat/Km of reduction by His6-ElxO with NADPH (absorbance at 340 nm) was 14.2 M⁻¹ s⁻¹.

For the molecule Pyruvoyl-AAIV [Pyr-AAIV], the kcat/Km of reduction by His6-ElxO with NADPH (absorbance at 340 nm) is 1.13 M⁻¹ s⁻¹.

Pyruvoyl-AAIVK [Pyr-AAIVK]: the kcat/Km of reduction by His6-ElxO with NADPH (absorbance at 340 nm) was found to be 2.43 M⁻¹ s⁻¹.

For the origin of these results see paper PMC4136673.
